Measured values published in the Immune Epitope Database (IEDB).

How the values were obtained:
[1] = biological target: HLA-A*01:01; test: IEDB peptide-MHC binding, purified MHC/direct/fluorescence; filed as Kd, often an IC50 or EC50 that approximates it; ≥ and ≤ were set here for values at or beyond the usual limits of such assays
[2] = biological target: HLA-A*02:01; test: as above
[3] = biological target: HLA-A*02:11; test: as above; conditions: source organism: Vibrio parahaemolyticus RIMD 2210633
[4] = biological target: HLA-A*02:12; test: as above; conditions: source organism: Vibrio parahaemolyticus RIMD 2210633
[5] = biological target: HLA-A*02:19; test: as above; conditions: source organism: Vibrio parahaemolyticus RIMD 2210633
[6] = biological target: HLA-A*02:50; test: as above; conditions: source organism: Vibrio parahaemolyticus RIMD 2210633
[7] = biological target: HLA-A*03:01; test: as above
[8] = biological target: HLA-A*11:01; test: as above
[9] = biological target: HLA-A*23:01; test: as above; conditions: source organism: Vibrio parahaemolyticus RIMD 2210633
[10] = biological target: HLA-A*24:03; test: as above
[11] = biological target: HLA-A*26:01; test: as above
[12] = biological target: HLA-A*26:03; test: as above; conditions: source organism: Vibrio parahaemolyticus RIMD 2210633
[13] = biological target: HLA-A*29:02; test: as above; conditions: source organism: Vibrio parahaemolyticus RIMD 2210633
[14] = biological target: HLA-A*30:01; test: as above; conditions: source organism: Vibrio parahaemolyticus RIMD 2210633
[15] = biological target: HLA-B*07:02; test: as above
[16] = biological target: HLA-B*08:01; test: as above
[17] = biological target: HLA-B*15:01; test: as above
[18] = biological target: HLA-B*27:05; test: as above
[19] = biological target: HLA-B*39:01; test: as above; conditions: source organism: Vibrio parahaemolyticus RIMD 2210633
[20] = biological target: HLA-B*40:01; test: as above
[21] = biological target: HLA-B*44:02; test: as above; conditions: source organism: Vibrio parahaemolyticus RIMD 2210633
[22] = biological target: HLA-B*46:01; test: as above; conditions: source organism: Vibrio parahaemolyticus
[23] = biological target: HLA-B*48:01; test: as above; conditions: source organism: Vibrio parahaemolyticus
[24] = biological target: HLA-B*51:01; test: as above; conditions: source organism: Vibrio parahaemolyticus RIMD 2210633
[25] = biological target: HLA-B*57:01; test: as above; conditions: source organism: Vibrio parahaemolyticus
[26] = biological target: HLA-B*58:01; test: as above
[27] = biological target: HLA-A*31:01; test: IEDB peptide-MHC binding, purified MHC/competitive/fluorescence; filed as Kd, often an IC50 or EC50 that approximates it; ≥ and ≤ were set here for values at or beyond the usual limits of such assays; conditions: source organism: Vibrio parahaemolyticus AN-5034
[28] = biological target: HLA-A*69:01; test: as above
[29] = biological target: HLA-B*15:17; test: as above; conditions: source organism: Vibrio parahaemolyticus AN-5034
[30] = biological target: HLA-A*02:01; test: as above
[31] = biological target: HLA-A*02:16; test: as above
[32] = biological target: HLA-A*03:01; test: as above; conditions: source organism: Vibrio vulnificus CMCP6
[33] = biological target: HLA-A*23:01; test: as above; conditions: source organism: Vibrio vulnificus CMCP6
[34] = biological target: HLA-A*24:03; test: as above; conditions: source organism: Vibrio vulnificus CMCP6
[35] = biological target: HLA-A*26:01; test: as above; conditions: source organism: Vibrio vulnificus CMCP6
[36] = biological target: HLA-B*15:01; test: as above; conditions: source organism: Vibrio vulnificus CMCP6
[37] = biological target: HLA-B*18:01; test: as above; conditions: source organism: Vibrio vulnificus CMCP6
[38] = biological target: HLA-B*27:03; test: as above; conditions: source organism: Vibrio vulnificus CMCP6
[39] = biological target: HLA-B*46:01; test: as above; conditions: source organism: Vibrio vulnificus CMCP6
[40] = biological target: HLA-B*57:01; test: as above; conditions: source organism: Vibrio vulnificus CMCP6
[41] = biological target: HLA-A*02:03; test: as above
[42] = biological target: HLA-A*02:06; test: as above
[43] = biological target: HLA-A*02:11; test: as above
[44] = biological target: HLA-A*02:12; test: as above
[45] = biological target: HLA-A*02:19; test: as above; conditions: source organism: Human immunodeficiency virus 1
[46] = biological target: HLA-A*31:01; test: IEDB peptide-MHC binding, purified MHC/direct/fluorescence; filed as Kd, often an IC50 or EC50 that approximates it; ≥ and ≤ were set here for values at or beyond the usual limits of such assays; conditions: source organism: Pasteurella multocida
[47] = biological target: HLA-A*69:01; test: as above; conditions: source organism: Pasteurella multocida
[48] = biological target: HLA-A*02:50; test: IEDB peptide-MHC binding, purified MHC/competitive/fluorescence; filed as Kd, often an IC50 or EC50 that approximates it; ≥ and ≤ were set here for values at or beyond the usual limits of such assays; conditions: source organism: Pasteurella multocida subsp. multocida str. Pm70
[49] = source organism: Vibrio parahaemolyticus
[50] = source organism: Vibrio parahaemolyticus RIMD 2210633
[51] = source organism: Vibrio vulnificus CMCP6
[52] = source organism: Human immunodeficiency virus 1
[53] = source organism: Pasteurella multocida
[54] = source organism: Pasteurella multocida subsp. multocida str. Pm70

DTWHGFKNM
Kd [1, 49]: ≥ 20 µM | Kd [2, 49]: ≥ 20 µM | Kd [3]: ≥ 20 µM | Kd [4]: ≥ 20 µM | Kd [5]: ≥ 20 µM | Kd [6]: ≥ 20 µM | Kd [7, 49]: ≥ 20 µM | Kd [8, 49]: ≥ 20 µM | Kd [9]: ≥ 20 µM | Kd [10, 50]: ≥ 20 µM | Kd [11, 50]: 0.171 µM | Kd [12]: 0.011 µM | Kd [13]: ≥ 20 µM | Kd [14]: ≥ 20 µM | Kd [15, 49]: ≥ 20 µM | Kd [16, 50]: ≥ 20 µM | Kd [17, 49]: ≥ 20 µM | Kd [18, 49]: ≥ 20 µM | Kd [19]: ≥ 20 µM | Kd [20, 49]: ≥ 20 µM | Kd [21]: ≥ 20 µM | Kd [22]: ≥ 20 µM | Kd [23]: ≥ 20 µM | Kd [24]: ≥ 20 µM | Kd [25]: ≥ 20 µM | Kd [26, 49]: ≥ 20 µM | Kd [27]: ≥ 20 µM | Kd ([28]; source organism: Vibrio parahaemolyticus AN-5034): 0.0223 µM | Kd [29]: ≥ 20 µM

FGAQMGWPV
Kd [30, 51]: 0.0048 µM | Kd [31, 51]: 0.0062 µM | Kd [32]: ≥ 20 µM | Kd [33]: ≥ 20 µM | Kd [34]: ≥ 20 µM | Kd [35]: ≥ 20 µM | Kd [36]: ≥ 20 µM | Kd [37]: ≥ 20 µM | Kd [38]: ≥ 20 µM | Kd [39]: ≥ 20 µM | Kd [40]: ≥ 20 µM

FLGKIWPS
Kd [30, 52]: 0.00325 µM | Kd [41, 52]: ≤ 0.0001 µM | Kd [42, 52]: ≤ 0.0001 µM | Kd [43, 52]: ≤ 0.0001 µM | Kd [44, 52]: ≤ 0.0001 µM | Kd [31, 52]: ≤ 0.0001 µM | Kd [45]: 0.0004 µM | Kd [28, 52]: 2.76 µM

HLADQLIHQ
Kd [30, 52]: 6.59 µM | Kd [41, 52]: 0.311 µM | Kd [43, 52]: 0.101 µM | Kd [45]: ≥ 20 µM | Kd [28, 52]: ≥ 20 µM

LLKDLMPFV
Kd [1, 53]: ≥ 20 µM | Kd [2, 53]: 0.051 µM | Kd [7, 53]: ≥ 20 µM | Kd [8, 53]: ≥ 20 µM | Kd [10, 53]: ≥ 20 µM | Kd [11, 53]: 0.0131 µM | Kd [46]: 1.46 µM | Kd [47]: 0.162 µM | Kd [15, 53]: ≥ 20 µM | Kd [16, 53]: ≥ 20 µM | Kd [17, 53]: 9.23 µM | Kd [18, 53]: ≥ 20 µM | Kd [20, 53]: ≥ 20 µM | Kd [26, 53]: ≥ 20 µM | Kd [41, 54]: ≤ 0.0001 µM | Kd [42, 54]: ≤ 0.0001 µM | Kd [43, 54]: ≤ 0.0001 µM | Kd [44, 54]: ≤ 0.0001 µM | Kd [48]: ≤ 0.0001 µM
